Target: the molecule itself
Assay: SEC-SAXS; SIBYLS beamline 12.3.1; Shodex KW-804 column for Pfs230D1-ferritin, Shodex KW-802.5 column for Pfs230D1; molecular weight from SAXS (ATSAS)

B1: Pfs230D1-ferritin (other)
chain: SVLQSGALPSVGVDELDKIDLSYETTESGDTAVSEDSYDKYASNNTNKEYVCDFTDQLKPTESGPKVKKCEVKVNEPLIKVKIICPLKGSVEKLYDNIEYVPKKSPYVVLTKEETKLKEKLLSKLIYGLLISPTVNEKENNFKEGVIEFTLPPVVHKATVFYFICDNSKTEDDNKKGNRGIVEVYVEPYGNKINGGGGGSGESQVRQQFSKDIEKLLNEQVNKEMQSSNLYMSMSSWCYTHSLDGAGLFLFDHAAEEYEHAKKLIIFLNENNVPVQLTSISAPEHKFEGLTQIFQKAYEHEQHISESINNIVDHAIKSKDHATFNFLQWYVAEQHEEEVLFKDILDKIELIGNENHGLYLADQYVKGIAKSRKS
notes: Pfs230 of Plasmodium falciparum 3D7 (XP_001349600.1): a portion of the N-terminal disordered region, amino acids 542-588, and domain 1 (D1), amino acids 589-736; linker that contains residues from the N-terminal extension found in bullfrog lower subunit ferritin; Helicobacter pylori ferritin (WP_000949190.1), amino acids 3-167, with I7E and N19Q; Cloned in a modified pHLSec with a secretion …
In the case of B1, the “stoichiometry N” value is reported as 24.

B2: ferritin (H. pylori ferritin nanoparticle construct without Pfs230D1) (other)
chain: GGSGGSGGGGSGESQVRQQFSKDIEKLLNEQVNKEMQSSNLYMSMSSWCYTHSLDGAGLFLFDHAAEEYEHAKKLIIFLNENNVPVQLTSISAPEHKFEGLTQIFQKAYEHEQHISESINNIVDHAIKSKDHATFNFLQWYVAEQHEEEVLFKDILDKIELIGNENHGLYLADQYVKGIAKSRKS
notes: linker that contains residues from the N-terminal extension found in bullfrog lower subunit ferritin; Helicobacter pylori ferritin (WP_000949190.1), amino acids 3-167, with I7E and N19Q; Cloned in a modified pHLSec with a secretion signal ahead of the subunit; purified without a tag; Subunit theoretical molecular weight printed as 21.2 kDa; also called ferritin construct; Helicobacter pylori …
In the case of B2, the “stoichiometry N” value is reported as 24.
